In test [1] the target is T1, wild-type soluble CD40L fragment (residues 118-261) with no N-terminal KGD motif (human, UniProt P29965 118-261).
T1 construct: also called WT CD40L; WT sCD40L; not shown: His tag from the PET28a vector (Ni-NTA purification, anti-His detection)
T1 sequence: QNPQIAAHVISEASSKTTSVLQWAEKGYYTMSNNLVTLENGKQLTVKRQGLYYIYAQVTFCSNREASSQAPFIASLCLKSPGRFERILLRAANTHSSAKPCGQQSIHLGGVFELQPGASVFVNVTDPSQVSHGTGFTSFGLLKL
The test is described as follows: ELISA-type: immobilized CD40L, site 2 peptide fused to GST, bound GST measured. On the technique in general: ELISA stands for enzyme-linked immunosorbent assay.

Test [2] deals with T2, CD40 fragment (residues 21-144) fused to GST (UniProt P25942 21-144).
T2 construct: range 21-144; Made in E. coli BL21 from PGEX2T (BamHI/EcoRI), purified on glutathione-sepharose; also called CD40 fused to GST; not shown: glutathione S-transferase encoded by the PGEX2T vector
T2 sequence (P25942 21-144): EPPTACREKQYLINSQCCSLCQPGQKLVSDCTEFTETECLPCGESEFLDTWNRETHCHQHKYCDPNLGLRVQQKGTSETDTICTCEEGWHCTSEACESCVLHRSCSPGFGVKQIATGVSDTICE
Put plainly: ELISA-type CD40 binding (as for FIG. 11).

Test [3] concerns the target T2, CD40 fragment (residues 21-144) fused …. The test is described as follows: ELISA-type: immobilized CD40 (21-144)-GST, CD40L mutant in solution.

Substitutions are numbered along the chain they refer to. In names and notes the source's numbering stands. Ends that are not written are not given here.

This is an account of results in US20220135649A1 (University of California, published 2022).

B1: site 2 peptide of integrin β3 fused to GST (peptide)
chain: QPNDGQSHVGSDNHYSASTTM
modifications: also: fused to GST, order not given here
notes: also called peptide from site 2 of β3; not shown: glutathione S-transferase fusion partner
With B1, the binding result in test [1] is “binds”.

B2: CD40L HIGMS1 mutant H224Y (soluble fragment) (ligand)
chain: T1 sequence with H107Y
notes: not shown: His tag from the PET28a vector (Ni-NTA purification, anti-His detection)
For B2, the binding result in test [2] is “binds”.

B3: CD40L HIGMS1 mutant G227V (soluble fragment) (ligand)
chain: T1 sequence with G110V
notes: as for B2
B3: in test [2], the binding result is reported as “binds”.

B4: CD40L HIGMS1 mutant Q174R (soluble fragment) (ligand)
chain: T1 sequence with Q57R
notes: as for B2
In the case of B4, the binding result in test [2] is “binds”.

B5: CD40L HIGMS1 mutant T176I (soluble fragment) (ligand)
chain: T1 sequence with T59I
notes: Printed as T1761, read as T176I; also called T1761 (so in the source); not shown: His tag from the PET28a vector (Ni-NTA purification, anti-His detection)
Take B5: the binding result in test [2] is “binds”.

B6: CD40L G252E mutant (soluble fragment) (ligand)
chain: T1 sequence with G135E
notes: Mutant of the soluble CD40L fragment; also called dnCD40L; CD40L decoy; not shown: His tag from the PET28a vector (Ni-NTA purification, anti-His detection)
Regarding B6, the binding result in test [3] was “binds”.

B7: CD40L HIGMS1 mutant G226A (soluble fragment) (ligand)
chain: T1 sequence with G109A
notes: as for B2
Turning to B7, the binding result in test [2] was “binds”.

B8: CD40L Y170E mutant (soluble fragment) (ligand)
chain: T1 sequence with Y53E
notes: Mutant of the soluble CD40L fragment; also called Y170 to E; dnCD40L; not shown: His tag from the PET28a vector (Ni-NTA purification, anti-His detection)
For B8, in test [3], the binding result is reported as “binds”.

B9: CD40L H224E/G226E mutant (soluble fragment) (ligand)
chain: T1 sequence with H107E, G109E
notes: as for B6
On to B9, for which, in test [3], the binding result is “binds”.

B10: CD40L HIGMS1 mutant L258S (soluble fragment) (ligand)
chain: T1 sequence with L141S
notes: as for B2
As to B10, the binding result in test [2] is “binds”.
